Values of other authors in publication PMC4454452.

Legend:
[1] = target: Histone H3 peptide (H3K9me3) (Homo sapiens) (UniProt P68431)
[2] = target: Histone H3 peptide (H3K9me0) (Homo sapiens) (UniProt P68431)

Chain of CHD4 PHD2 (Q14839 449-496): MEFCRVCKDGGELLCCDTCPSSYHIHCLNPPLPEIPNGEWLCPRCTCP

In the case of CHD4 PHD2 (from UniProt Q14839), the Kd [1] is listed as 0.9 µM and the Kd [2] is listed as 19 µM.
